Test results: patent US20260250421A1 (BIOCYTOGEN PHARMACEUTICALS BEIJING, published 2026)

T1: His-tagged human TROP2 protein (human, UniProt P09758 27-274)
T1 construct: Bought protein; also called hTROP2-His; ACRO Biosystems Cat# TR2-H5223; not shown: His tag
T1 sequence (looked up): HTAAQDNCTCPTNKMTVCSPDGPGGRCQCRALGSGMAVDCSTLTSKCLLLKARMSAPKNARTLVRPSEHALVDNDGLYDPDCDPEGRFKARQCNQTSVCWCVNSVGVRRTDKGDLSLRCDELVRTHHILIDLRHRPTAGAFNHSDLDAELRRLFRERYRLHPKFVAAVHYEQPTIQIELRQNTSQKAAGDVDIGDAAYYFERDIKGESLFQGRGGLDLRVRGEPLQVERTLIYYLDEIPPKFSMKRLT

T2: His-tagged monkey TROP2 protein (cynomolgus monkey; Rhesus …, UniProt A0A5F8AGB8 27-274)
T2 construct: also called cTROP2-His; ACRO Biosystems Cat# TR2-R52H3
T2 sequence: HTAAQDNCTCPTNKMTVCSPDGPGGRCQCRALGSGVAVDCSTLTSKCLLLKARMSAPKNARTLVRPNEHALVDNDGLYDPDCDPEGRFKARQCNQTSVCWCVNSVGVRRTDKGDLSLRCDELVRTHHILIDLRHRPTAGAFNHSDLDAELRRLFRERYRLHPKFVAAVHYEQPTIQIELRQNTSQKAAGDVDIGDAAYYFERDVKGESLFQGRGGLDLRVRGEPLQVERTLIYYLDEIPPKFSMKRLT

T3: TROP2 on NCI-H1975 and NUGC-4 tumor cells (UniProt P09758 27-323, limits assumed)
T3 construct: whole, on cells; species of the lines is not worded there; also called TROP2 on cells
T3 sequence (looked up): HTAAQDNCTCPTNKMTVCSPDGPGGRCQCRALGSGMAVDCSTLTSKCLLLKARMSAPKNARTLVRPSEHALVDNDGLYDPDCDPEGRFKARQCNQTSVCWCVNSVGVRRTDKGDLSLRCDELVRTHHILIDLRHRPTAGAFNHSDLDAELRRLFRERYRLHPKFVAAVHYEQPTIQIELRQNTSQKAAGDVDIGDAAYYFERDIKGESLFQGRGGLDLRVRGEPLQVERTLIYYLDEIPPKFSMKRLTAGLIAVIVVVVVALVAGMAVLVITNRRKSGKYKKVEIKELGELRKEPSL


Tests used:
[1] = molecular target: T1, His-tagged human TROP2 protein; test: SPR Biacore 8K, Ab on Protein A chip
Method: (§1) The affinity of the anti-TROP2 antibodies to His-tagged human TROP2 protein (hTROP2-His, ACRO Biosystems Inc., Cat #: TR2-H5223), His-tagged cynomolgus monkey TROP2 protein (cTROP2-His, ACRO Biosystems Inc., Cat #: TR2-R52H3) and His-tagged dog TROP2 protein (dTROP2-His, ACRO Biosystems Inc., Cat #: TR2-C52H4) were measured by surface plasmon resonance (SPR) using Biacore™ (Biacore, INC, Piscataway N.J.) 8K biosensor equipped with pre-immobilized Protein A sensor chips.
(§2) Purified anti-TROP2 antibodies were diluted to 1 μg/mL and then injected into the Biacore™ 8K biosensor at 10 μL/min for about 50 seconds to achieve a desired protein density (e.g., about 350 response units (RU)). The His-tagged TROP2 protein at a concentration of 200 nM was then injected at 30 μL/min for 180 seconds. Dissociation was monitored for 400 seconds. The chip was regenerated after the last injection of each titration with glycine (pH 2.0, 30 μL/min for 30 seconds).

[2] = molecular target: T2, His-tagged monkey TROP2 protein; test: SPR Biacore 8K, Ab on Protein A chip
Method: as §1, §2

[3] = molecular target: T3, TROP2 on NCI-H1975 and NUGC-4 tumor …; test: flow cytometry on NUGC-4 cells (only TROP2 expression), anti-hIgG-Fc Alexa Fluor 647 secondary antibody, MFI [B]
Method: (§3) This experiment was performed to test the binding activities of the anti-PTK7/TROP2 bispecific antibodies to different tumor cell lines. NCI-H1975 cells or NUGC-4 cells were transferred to a 96-well plate at a density of 5×10⁴ cells/well respectively. The sample antibody was added to the 96-well plate, and incubated at 4° C. for 30 min.

[4] = molecular target: T3, TROP2 on NCI-H1975 and NUGC-4 tumor …; test: flow cytometry on NCI-H1975 cells (PTK7/TROP2 co-expression), anti-hIgG-Fc Alexa Fluor 647 secondary antibody, MFI [A]
Method: as §3

Kd [1] [nM] | koff [1] [s⁻¹] | kon [1] [M⁻¹ s⁻¹] | Kd [2] [nM] | koff [2] [s⁻¹] | kon [2] [M⁻¹ s⁻¹] | EC50 (read off the curve) [3] [µg/mL] | EC50 (read off the curve) [4] [µg/mL] | Binder
1.24 | 0.000255 | 205000 | 1.11 | 0.000245 | 221000 | ~0.6 | ~0.7 | Sacituzumab analog (antibody, V domains shown, also called antibody portion of Sacituzumab govitecan) VH: QVQLQQSGSELKKPGASVKVSCKASGYTFTNYGMNWVKQAPGQGLKWMGWINTYTGEPTYTDDFKGRFAFSLDTSVSTAYLQISSLKADDTAVYFCARGGFGSSYWYFDVWGQGSLVTVSS VL: DIQLTQSPSSLSASVGDRVSITCKASQDVSIAVAWYQQKPGKAPKLLIYSASYRYTGVPDRFSGSGSGTDFTLTISSLQPEDFAVYYCQQHYITPLTFGAGTKVEIKR
37 | 0.00411 | 111000 | 32.5 | 0.00409 | 126000 |  |  | DS-1062 analog-LALA (antibody, V domains shown, also called DS-1062 analog with LALA mutations) VH: QVQLVQSGAEVKKPGASVKVSCKASGYTFTTAGMQWVRQAPGQGLEWMGWINTHSGVPKYAEDFKGRVTISADTSTSTAYLQLSSLKSEDTAVYYCARSGFGSSYWYFDVWGQGTLVTVSS VL: DIQMTQSPSSLSASVGDRVTITCKASQDVSTAVAWYQQKPGKAPKLLIYSASYRYTGVPSRFSGSGSGTDFTLTISSLQPEDFAVYYCQQHYITPLTFGQGTKLEIKR
1.46 | 0.00117 | 798000 | 1.2 | 0.00132 | 1.1e+06 |  |  | 18E9 (antibody, V domains shown, also called anti-TROP2 antibody 18E9) VH: QLQLQQSGPGLLKPSETLSLTCTVSGGSISSSYYFWGWIRQPPGKGLEWIGAIYYIGNTHYNPSLKSRVTISIDTSKNQFSLNLNSVTAADTAIYYCARYEDTWNWFDPWGQGTLVTVSS VL: not shown
 |  |  |  |  |  | ~0.3 | ~0.4 | DS-1062 analog (antibody, V domains shown, The sheet names it 'DS-1062 analog' with no LALA or SI suffix, so it is kept apart from m18 (DS-1062 analog-LALA); also called antibody portion of DS-1062; copies: 2 + 2) VH: QVQLVQSGAEVKKPGASVKVSCKASGYTFTTAGMQWVRQAPGQGLEWMGWINTHSGVPKYAEDFKGRVTISADTSTSTAYLQLSSLKSEDTAVYYCARSGFGSSYWYFDVWGQGTLVTVSS VL: DIQMTQSPSSLSASVGDRVTITCKASQDVSTAVAWYQQKPGKAPKLLIYSASYRYTGVPSRFSGSGSGTDFTLTISSLQPEDFAVYYCQQHYITPLTFGQGTKLEIK
7.16 | 0.00511 | 713000 | 5.41 | 0.00435 | 803000 |  |  | 18F12 (antibody, V domains shown, also called anti-TROP2 antibody 18F12) VH: QLQLKESGPGLVKPSETLSLTCTVSGGSISYYYWSWIRQPPGMGLEWIGNIYYSGDTNYNPSLRSRVTISIDMSKNQFSLRLNSVTAADTAVYYCARYDMFKWNYEAFDVWGQGTMVTVSS VL: not shown
